Test results as given in the supplement of paper PMC10567573.

B1: SLC35F2 (parent)
chain: QYLAERYKVNTPMLQSFINYCLLF

Variants of: B1
Assay: protein stability index of a GFP-peptide fusion (GPS, HEK-293T) (PSI 1-6); higher = more stable
Conditions: c terminus: a fixed tail appended
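Also: lentivirally expressed fusions sorted by FACS into six bins by GFP to DsRed ratio, PSI derived from sequencing read proportions per bin multiplied by bin number.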

Protein stability index of substitutions, site by site:
Q15: T 3.41; V 2.86; W 2.83; Y 3.21
S16: A 2.43; C 2.44; D 3; E 2.19; F 2.11; G 2.22; H 1.83; I 3; K 2.76; L 3.45; N 2.36; P 3.19; Q 1.65; R 2.63; T 1.72; V 3.01; W 1.87; Y 1.79
F17: A 1.76; C 3.45; D 1.82; E 2.3; G 2.45; H 3.26; I 3; K 2.65; M 3.02; N 2.12; P 1.8; Q 2.34; R 3.78; S 3.47; T 2.45; V 3.29; W 1.6; Y 2.14
I18: A 1.93; C 3.62; D 3.29; E 2.75; F 1.98; G 1.92; H 2.9; K 1.99; L 2.96; M 2.56; N 2.1; P 3.3; Q 2.48; R 3.24; S 2.34; T 2.82; V 1.34; W 2.53; Y 2.15
N19: A 3.55; D 2.49; E 2.22; F 2.49; G 2.7; H 2.18; I 1.48; K 2.56; L 1.71; M 2.08; P 2.7; Q 3.31; R 2.35; S 2.38; T 2.51; V 2.75; W 2.94; Y 2.31
Y20: A 3.18; C 2.64; D 1.81; E 2.09; F 3.1; G 2.35; H 2.97; I 2.62; K 2.5; L 2.94; M 2.09; N 2.41; P 2.17; Q 2.56; R 2.47; S 2.3; T 2.27; V 2.78; W 2.03
C21: A 3.53; D 2.36; E 1.65; F 1.99; G 2.33; H 2.29; I 2.06; K 3.46; L 2.52; M 2.52; N 2.96; P 2.55; Q 2.3; R 2.05; S 2.67; T 2.11; V 1.62; W 2.44; Y 3.61
L22: A 1.57; C 1.89; D 2.05; E 3.47; F 3.25; G 2.23; H 3.33; I 3.04; K 2.83; M 2.85; N 2.29; P 1.82; Q 2.44; R 2.03; S 2.21; T 2.29; V 3.01; Y 3.57
L23: A 2.27; C 1.69; D 2.96; E 1.78; F 2.96; G 1.91; H 1.81; I 3.19; K 1.64; M 2.7; N 2.59; P 1.63; Q 1.3; R 2.46; S 2.08; T 1.94; W 2.47; Y 2.86
F24: C 1.99; D 2.21; E 2.28; G 2.48; H 2.13; I 3.21; K 1.98; L 2.95; M 3.6; N 2.58; P 3.94; Q 3.26; R 2.88; S 1.81; T 2.69; V 3.47
